Tests used:
[1] = target: recombinant human p75-TNF-R-human IgGγ3 fusion protein (human) (UniProt P20333); assay: calculated from FIG. 7: competition with 125I-TNFα on plates coated with receptor-IgGγ3 fusions; reference: the same mutein on p55-TNF-R-IgGγ3
[2] = target: human p55-Tumor-Necrosis-Factor-Receptor on Hep-2 cells (human) (UniProt P19438)
[3] = target: human p75-Tumor-Necrosis-Factor-Receptor on U937 cells (human) (UniProt P20333); assay: 125I-TNF-α competition, U937 cells, exp 2, mutant 1 × 10^-6 mol
[4] = target: native human p75-TNF-R purified from HL60 cells (human) (UniProt P20333); assay: competition with 125I-TNFα for p75-TNF-R, calculated from FIG. 1 (and FIG. 7)
[5] = target: human p75-Tumor-Necrosis-Factor-Receptor on U937 cells (human) (UniProt P20333); assay: 125I-TNF-α competition, U937 cells, exp 2, mutant 6 × 10^-8 mol
[6] = target: human p75-Tumor-Necrosis-Factor-Receptor on U937 cells (human) (UniProt P20333); assay: 125I-TNF-α competition, U937 cells, exp 1, mutant 3.2 × 10^-8 mol
[7] = target: human p75-Tumor-Necrosis-Factor-Receptor on U937 cells (human) (UniProt P20333); assay: 125I-TNF-α competition, U937 cells, exp 2, mutant […] 10^-7 mol
[8] = target: human p75-Tumor-Necrosis-Factor-Receptor on U937 cells (human) (UniProt P20333); assay: 125I-TNF-α competition, U937 cells, exp 1, mutant 8 × 10^-9 mol
[9] = target: human p75-Tumor-Necrosis-Factor-Receptor on U937 cells (human) (UniProt P20333); assay: 125I-TNF-α competition, U937 cells, exp 1, mutant 1 × 10^-9 mol
[10] = target: human p75-Tumor-Necrosis-Factor-Receptor on U937 cells (human) (UniProt P20333); assay: 125I-TNF-α competition, U937 cells, exp 1, mutant 2 × 10^-6 mol
[11] = target: human p75-Tumor-Necrosis-Factor-Receptor on U937 cells (human) (UniProt P20333); assay: 125I-TNF-α competition, U937 cells, exp 1, mutant 5 × 10^-7 mol
[12] = target: human p75-Tumor-Necrosis-Factor-Receptor on U937 cells (human) (UniProt P20333); assay: 125I-TNF-α competition, U937 cells, exp 1, mutant 1 × 10^-6 mol
[13] = target: human p75-Tumor-Necrosis-Factor-Receptor on U937 cells (human) (UniProt P20333); assay: competition analysis on U937 cells
[14] = target: human p75-Tumor-Necrosis-Factor-Receptor on U937 cells (human) (UniProt P20333); assay: 125I-TNF-α competition, U937 cells, exp 2, mutant 5 × 10^-7 mol
[15] = target: human p75-Tumor-Necrosis-Factor-Receptor on U937 cells (human) (UniProt P20333); assay: 125I-TNF-α competition, U937 cells, exp 2, mutant 4 × 10^-9 mol
[16] = target: human p75-Tumor-Necrosis-Factor-Receptor on U937 cells (human) (UniProt P20333); assay: 125I-TNF-α competition, U937 cells, exp 2, mutant 1.5 × 10^-8 mol
[17] = target: human p75-Tumor-Necrosis-Factor-Receptor on U937 cells (human) (UniProt P20333); assay: 125I-TNF-α competition, U937 cells, exp 1, mutant […] 10^-8 mol
[18] = target: human p75-Tumor-Necrosis-Factor-Receptor on U937 cells (human) (UniProt P20333); assay: competition assay on U937 cells
[19] = target: native human p75-TNF-R purified from HL60 cells (human) (UniProt P20333); assay: from the IC50 values of Table F, competition with 125I-TNFα; reference: the same mutein on p55-TNF-R
[20] = target: human p75-Tumor-Necrosis-Factor-Receptor on U937 cells (human) (UniProt P20333); assay: 125I-TNF-α competition, U937 cells, exp 1, mutant 6.4 × 10^-8 mol
[21] = target: human p75-Tumor-Necrosis-Factor-Receptor on U937 cells (human) (UniProt P20333); assay: 125I-TNF-α competition, U937 cells, exp 1, mutant 1.25 × 10^-7 mol
[22] = target: human p75-Tumor-Necrosis-Factor-Receptor on U937 cells (human) (UniProt P20333); assay: 125I-TNF-α competition, U937 cells, exp 1, mutant […] 10^-7 mol
[23] = target: human p75-Tumor-Necrosis-Factor-Receptor on U937 cells (human) (UniProt P20333); assay: 125I-TNF-α competition, U937 cells, exp 2, mutant 2 × 10^-6 mol
[24] = target: native human p75-TNF-R purified from HL60 cells (human) (UniProt P20333); assay: competition with 125I-TNFα for p75-TNF-R
[25] = target: human p75-Tumor-Necrosis-Factor-Receptor on U937 cells (human) (UniProt P20333); assay: 125I-TNF-α competition, U937 cells, exp 2, mutant 3 × 10^-8 mol
[26] = target: human p75-Tumor-Necrosis-Factor-Receptor on U937 cells (human) (UniProt P20333); assay: 125I-TNF-α competition, U937 cells, exp 1, mutant 4 × 10^-9 mol
[27] = target: human p75-Tumor-Necrosis-Factor-Receptor on U937 cells (human) (UniProt P20333); assay: 125I-TNF-α competition, U937 cells, exp 2, mutant 8 × 10^-9 mol
[28] = target: human p75-Tumor-Necrosis-Factor-Receptor on U937 cells (human) (UniProt P20333); assay: 125I-TNF-α competition, U937 cells, exp 1, mutant 2 × 10^-9 mol
[29] = target: human p75-Tumor-Necrosis-Factor-Receptor on U937 cells (human) (UniProt P20333); assay: competition analysis, U937 cells against Hep-2 cells
[30] = target: human p75-Tumor-Necrosis-Factor-Receptor on U937 cells (human) (UniProt P20333); assay: 125I-TNF-α competition, U937 cells, exp 2, mutant 1.2 × 10^-7 mol
[31] = target: human p75-Tumor-Necrosis-Factor-Receptor on U937 cells (human) (UniProt P20333); assay: 125I-TNF-α (batch 2) competition, U937 cells, exp 3, mutant 5 × 10^-7 mol
[32] = target: human p75-Tumor-Necrosis-Factor-Receptor on U937 cells (human) (UniProt P20333); assay: 125I-TNF-α (batch 2) competition, U937 cells, exp 3, mutant 8 × 10^-9 mol
[33] = target: human p75-Tumor-Necrosis-Factor-Receptor on U937 cells (human) (UniProt P20333); assay: 125I-TNF-α competition, U937 cells, exp 2, mutant 4 × 10^9 as printed
[34] = target: human p75-Tumor-Necrosis-Factor-Receptor on U937 cells (human) (UniProt P20333); assay: 125I-TNF-α competition, U937 cells, exp 1, mutant 1.5 × 10^-8 mol
[35] = target: human p75-Tumor-Necrosis-Factor-Receptor on U937 cells (human) (UniProt P20333); assay: 125I-TNF-α (batch 2) competition, U937 cells, exp 3, mutant 1.25 × 10^-7 mol
[36] = target: human p75-Tumor-Necrosis-Factor-Receptor on U937 cells (human) (UniProt P20333); assay: 125I-TNF-α competition, U937 cells, exp 2, mutant 1.10^-6 as printed
[37] = target: human p75-Tumor-Necrosis-Factor-Receptor on U937 cells (human) (UniProt P20333); assay: 125I-TNF-α (batch 2) competition, U937 cells, exp 3, mutant 1 × 10^-6 mol
[38] = target: human p75-Tumor-Necrosis-Factor-Receptor on U937 cells (human) (UniProt P20333); assay: 125I-TNF-α competition, U937 cells, exp 1, mutant 6 × 10^-8 mol
[39] = target: human p75-Tumor-Necrosis-Factor-Receptor on U937 cells (human) (UniProt P20333); assay: 125I-TNF-α (batch 2) competition, U937 cells, exp 3, mutant 1.5 × 10^-8 mol
[40] = target: human p75-Tumor-Necrosis-Factor-Receptor on U937 cells (human) (UniProt P20333); assay: 125I-TNF-α (batch 2) competition, U937 cells, exp 3, mutant 3 × 10^-8 mol
[41] = target: human p75-Tumor-Necrosis-Factor-Receptor on U937 cells (human) (UniProt P20333); assay: 125I-TNF-α (batch 2) competition, U937 cells, exp 3, mutant 2 × 10^-6 mol
[42] = target: human p75-Tumor-Necrosis-Factor-Receptor on U937 cells (human) (UniProt P20333); assay: 125I-TNF-α (batch 2) competition, U937 cells, exp 3, mutant […] 10^-7 mol
[43] = target: human p75-Tumor-Necrosis-Factor-Receptor on U937 cells (human) (UniProt P20333); assay: 125I-TNF-α competition, U937 cells, exp 1, mutant 3 × 10^-8 mol
[44] = target: human p75-Tumor-Necrosis-Factor-Receptor on U937 cells (human) (UniProt P20333); assay: 125I-TNF-α (batch 2) competition, U937 cells, exp 3, mutant 4 × 10^-9 mol
[45] = target: human p75-Tumor-Necrosis-Factor-Receptor on U937 cells (human) (UniProt P20333); assay: 125I-TNF-α (batch 2) competition, U937 cells, exp 3, mutant 6 × 10^-8 mol

Sequence of UniProt P19438 (P19438 30-455): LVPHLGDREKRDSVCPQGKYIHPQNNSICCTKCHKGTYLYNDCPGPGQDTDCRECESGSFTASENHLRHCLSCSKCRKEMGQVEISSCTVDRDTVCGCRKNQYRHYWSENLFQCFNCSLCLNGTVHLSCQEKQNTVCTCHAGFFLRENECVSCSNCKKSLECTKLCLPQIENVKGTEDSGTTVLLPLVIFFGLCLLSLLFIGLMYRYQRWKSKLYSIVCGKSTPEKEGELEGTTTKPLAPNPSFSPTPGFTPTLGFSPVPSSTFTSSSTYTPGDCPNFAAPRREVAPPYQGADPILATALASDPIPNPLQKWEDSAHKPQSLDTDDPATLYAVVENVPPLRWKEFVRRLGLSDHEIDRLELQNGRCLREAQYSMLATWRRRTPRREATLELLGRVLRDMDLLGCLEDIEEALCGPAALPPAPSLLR
Sequence of UniProt P20333 (P20333 other isoform, or with tags, fused parts or gaps): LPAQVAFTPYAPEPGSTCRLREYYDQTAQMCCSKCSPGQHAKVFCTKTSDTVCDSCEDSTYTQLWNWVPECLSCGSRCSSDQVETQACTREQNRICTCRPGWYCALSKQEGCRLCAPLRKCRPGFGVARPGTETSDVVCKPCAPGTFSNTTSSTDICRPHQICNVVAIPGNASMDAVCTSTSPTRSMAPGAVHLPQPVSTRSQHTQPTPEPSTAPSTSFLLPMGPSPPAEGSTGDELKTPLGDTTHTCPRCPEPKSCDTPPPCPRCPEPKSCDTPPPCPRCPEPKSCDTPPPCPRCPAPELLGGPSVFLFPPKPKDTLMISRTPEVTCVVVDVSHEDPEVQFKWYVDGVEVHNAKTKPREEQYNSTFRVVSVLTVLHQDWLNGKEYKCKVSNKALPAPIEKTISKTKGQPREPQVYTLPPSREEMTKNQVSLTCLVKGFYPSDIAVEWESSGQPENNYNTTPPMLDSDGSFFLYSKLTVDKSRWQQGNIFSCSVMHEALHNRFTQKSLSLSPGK

Gly^29 -TNFα (ligand) showed a selectivity factor S (IC50 p75-TNF-R against IC50 p55-TNF-R) [1] of 80.
With Ser^29 -TNFα (ligand) the specific activity (U/mg), cytotoxicity assay on Hep-2 cells [2] was 9.3e+06 U/mg, the specific activity on Hep-2 cells, relative value in percentage to TNF-α [2] was 32% and the Mean dpm [3] was 263 dpm. It also gave an IC50 [4] of 2.5 µg/mL, a Mean dpm [5] of 489 dpm and a Mean dpm [6] of 1420 dpm. For the same substance, the Mean dpm [7] was 380 dpm, the Mean dpm [8] was 1710 dpm and the Mean dpm [9] was 1870 dpm. The Mean dpm [10] was 533 dpm, the Mean dpm [11] was 949 dpm and the Mean dpm [12] was 632 dpm. It also gave an affinity, relative value in percentage to TNF-α [13] of 0.49%, a Mean dpm [14] of 319 dpm and a Mean dpm [15] of 635 dpm. For the same substance, the Mean dpm [16] was 641 dpm, the Mean dpm [17] was 1580 dpm and the increase in KD-value by a factor, against TNF-α [18] was over 100 fold. The selectivity factor S (IC50 p75-TNF-R against IC50 p55-TNF-R) [19] was 28, the Mean dpm [20] was 1320 dpm and the Mean dpm [21] was 1200 dpm. The Mean dpm [22] was 983 dpm, the Mean dpm [23] was 238 dpm and the Decrease in Affinity (with respect to TNFα) [24] was 250. It also gave a Mean dpm [25] of 572 dpm, a Mean dpm [26] of 1720 dpm and a Mean dpm [27] of 603 dpm. It also gave a Mean dpm [28] of 1780 dpm, a fold reduction of binding affinity against its affinity to p55-TNF-R [29] of 50 fold and a percent of its binding affinity to p55-TNF-R [29] of 2%. For the same substance, the Mean dpm [30] was 413 dpm.
In the case of Ser^29 -Trp^32 -TNFα (ligand), the selectivity factor S (IC50 p75-TNF-R against IC50 p55-TNF-R) [1] is reported as 450.
Substance Trp^32 -TNFα (ligand) has a specific activity (U/mg), cytotoxicity assay on Hep-2 cells [2] of 4.5e+07 U/mg, a specific activity on Hep-2 cells, relative value in percentage to TNF-α [2] of 155% and a Mean dpm [31] of 1470 dpm. It also gave an IC50 [4] of 5 µg/mL, a Mean dpm [32] of 4040 dpm and a Mean dpm [5] of 546 dpm. It also gave a Mean dpm [33] of 653 dpm, a Mean dpm [34] of 1490 dpm and a Mean dpm [35] of 2390 dpm. For the same substance, the Mean dpm [7] was 479 dpm, the Mean dpm [8] was 1580 dpm and the Mean dpm [36] was 357 dpm. It also gave a Mean dpm [37] of 1190 dpm, a Mean dpm [38] of 1330 dpm and a Mean dpm [9] of 1920 dpm. It also gave a Mean dpm [39] of 3620 dpm, a Mean dpm [10] of 628 dpm and a Mean dpm [11] of 953 dpm. The Mean dpm [12] was 777 dpm, the affinity, relative value in percentage to TNF-α [13] was 0.71% and the Mean dpm [14] was 422 dpm. It also gave a Mean dpm [40] of 3280 dpm, a Mean dpm [16] of 636 dpm and an increase in KD-value by a factor, against TNF-α [18] of over 100 fold. For the same substance, the selectivity factor S (IC50 p75-TNF-R against IC50 p55-TNF-R) [19] was 294, the Mean dpm [41] was 814 dpm and the Mean dpm [21] was 1170 dpm. For the same substance, the Mean dpm [22] was 1030 dpm, the Mean dpm [42] was 1980 dpm and the Mean dpm [23] was 294 dpm. For the same substance, the Mean dpm [43] was 1380 dpm, the Decrease in Affinity (with respect to TNFα) [24] was 500 and the Mean dpm [25] was 585 dpm. It also gave a Mean dpm [26] of 1660 dpm, a Mean dpm [27] of 629 dpm and a Mean dpm [44] of 4760 dpm. For the same substance, the Mean dpm [28] was 1700 dpm, the fold reduction of binding affinity against its affinity to p55-TNF-R [29] was 33 fold and the percent of its binding affinity to p55-TNF-R [29] was 3%. It also gave a Mean dpm [30] of 508 dpm and a Mean dpm [45] of 3030 dpm.
Substance Tyr^29 -TNFα (ligand) has a selectivity factor S (IC50 p75-TNF-R against IC50 p55-TNF-R) [1] of 110.
Tyr^32 -TNFα (ligand) showed a selectivity factor S (IC50 p75-TNF-R against IC50 p55-TNF-R) [1] of 90.
